Assay results from the supplement of paper PMC11502859.

System: HEK293T
Assay: median enrichment of reporter reads in eGFP-reduced (low/intermediate) vs eGFP-high sorted cells (eGFP-extension fusion abundance) (ratio); higher = stronger loss of eGFP-fusion protein abundance (more destabilising extension)
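Also: lentiviral eGFP-IRES-mCherry reporter pool sorted by FACS 96 h post-transduction, gated on mCherry-high cells, Illumina read counts normalized per million, median across four biological replicates.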

Going from KKKKKKRRKKLL [CCNT1] to “KKKKKQQVMELHILVTQWTIIGSHWKSGKNPWRLSFSDILPNALLSRIFVSFCLIFWGVFVVVGLFFVFFF [PPP1R12A]”, the median enrichment rises from 0.26 to 4.71.

Going from KKKLSHREKNI [OGA] to KKLRS [CRYGN], the median enrichment falls from 0.598 to 0.509.

First: KKNQNGLR [ADGRB3]
Second: KKNVEAIGLLGG [Degron KLHDC2]
The median enrichment of the first is lower: 0.618 for the first, 5.08 for the second.

First: KKPPAQLETC [METTL16]
Second: KKSSINVLSIGKYT [GRIN2A]
The median enrichment of the first is lower: 0.455 for the first, 1.77 for the second.

Compared with KKTSSR [LGALS2], KKVGRARPCQRG [Degron KLHDC3] is higher in median enrichment: 0.594 for the first, 6.66 for the second.

Going from KKVGTMRGVGYP [Degron APPBP2] to KLDLII [OR4S2], the median enrichment falls from 4.39 to 1.99.

Compared with KLICKIRNWTHIALFECEVR [RNF182], KLQC [OR4C6] is lower in median enrichment: 12.7 for the first, 0.547 for the second.

Compared with KLSNH [WDR27], KMDPCEIYHSLVSPSFLSFLNSTFWRDFPK [OR9Q2] is higher in median enrichment: 0.453 for the first, 3.34 for the second.

Compared with KMF [EFCAB2], “KNAPSDLASKKSCSVPCVLSFKGIFRINSDLEDSSVLQRLAFIFIVIMEMLSFILSYIRKKGVMQLISISLGNALVLFSSFLV [CREB5]” is higher in median enrichment: 0.649 for the first, 15.5 for the second.

Compared with KNAQLL [ROR1], KNF [PLXDC2] is higher in median enrichment: 0.376 for the first, 0.62 for the second.

Compared with KNQGCFEGKGSLSYALLYHQDYILKRKSSM [GPR65], “KPERSQDPSRQHQLTDALVVPPSSPDCARSAVPSSGHLSSLWVPPHPSPC [RBP5]” is lower in median enrichment: 11.5 for the first, 5.79 for the second.

Going from KPGNPYSFSNTGSFI [ADAM30] to KPKEVPGTVSDLERSQKENNIIK [CELA2A], the median enrichment falls from 0.59 to 0.

First: KPSEFSL [CD163]
Second: KPVLGPSVKYP [GNPDA1]
The median enrichment of the first is higher: 0.535 for the first, 0.312 for the second.

Compared with KQEWQSKLKL [UHRF1BP1L], KQGRWERDCLLPLLSSSCLEVEAV [GRM6] is higher in median enrichment: 0.342 for the first, 6.27 for the second.

First: KQIKLDEIYNYLIAQ [MDH1B]
Second: KQP [PSG11]
The median enrichment of the first is higher: 18.9 for the first, 0.269 for the second.

First: KQQPV [DPPA2]
Second: KQRRWTFCSNVYMYRIVHTSNSEDLYL [SLC10A7]
The median enrichment of the first is lower: 0.433 for the first, 6.06 for the second.

First: KQWQQLGLETSRWCWDHLSLLLLASHSL [PACRG]
Second: KRASTSEWPHLCPRC [NUMA1]
The median enrichment of the first is higher: 7.92 for the first, 0.399 for the second.

Going from “KRGCGSQGGLQGTGMSGGHQAQRKRKQREFTGPPEKSQSDVCRHLPIPASLARALLGPEQRRTCPTHTAIYSSRHRAPLPYSW [CRHR2]” to KRGTGGRGRGVLHEMLMLSVISGESV [FAM98C], the median enrichment rises from 4.02 to 7.54.

First: KRKLKNGCLELVLQLL [REG1B]
Second: KRL [CYP17A1]
The median enrichment of the first is higher: 6.65 for the first, 0.493 for the second.

First: KRQK [CCR2]
Second: KRRIYVLFKQEKVTLPMLSPLHNI [CDH10]
The median enrichment of the first is lower: 0.621 for the first, 4.44 for the second.

Compared with KRTQPPSAQREATSQPRGGRIRKQSHS [CCK], KRYPLNIFVEVSYLYQRLGLPI [C7orf25] is higher in median enrichment: 0 for the first, 15.9 for the second.

First: KSFPLTLLQIGL [PTHLH]
Second: KSIIILQHLRVWQLFVWAFAHAMPSLPSPTPTRGDS [SPATA12]
The median enrichment of the first is higher: 19.8 for the first, 8.97 for the second.

Going from KSTSSHETE [UNC5D] to “KSYLSLSNGMKLDNFKKLSRTKGERNTCSFSCN [KLHL4]”, the median enrichment rises from 1.07 to 5.48.

Compared with KTAPPTSVQAGRSP [NCAPD3], KTCIHFLQTI [BACH1] is lower in median enrichment: 7.59 for the first, 2.97 for the second.

Compared with KTIQKRNQFFPQSIQCLEY [HEATR3], KTKAKYIDFTVILKYNKNC [IL26] is higher in median enrichment: 5.13 for the first, 5.5 for the second.

Going from “KTNKMRSSLWSFNSLMQIKTQTSLQALAYYSCIKNFGWGDLGA [MTRNR2L7]” to “KTQMRASLRLPETARPKSQVQSFPTPLKFIVSSREKQIPIHPTNRCIVWVLEVPSKLLLVRLG [PPEF1]”, the median enrichment rises from 7.22 to 14.2.

Compared with KTTFPKENIRGFHC [CPVL], KVCRSQ [KRTAP11-1] is higher in median enrichment: 0.477 for the first, 3.09 for the second.

For KVKP [TRPC5], the median enrichment was 0.338.
